Earlier results on 2 substances are cited in paper doi:10.1101/2023.01.13.523947.

The series concerns 35I9 anti-DNA mAb (Mus musculus (NZWxNZB F1)).

For orientation: Kd means the free concentration of one partner at which half of the binding sites on the other are occupied at equilibrium, for simple one-to-one binding. On to dsDNA (cited Kd), for which the Kd is 0.09 µM. As for ssDNA (cited Kd), the Kd was 0.71 µM.
